According to the supplement of paper PMC10567573:
± gives the standard deviation.

Assay: protein stability index of a GFP-peptide fusion (GPS, HEK-293T) (PSI 1-6); higher = more stable
[1] = treatment: DMSO, c terminus: a fixed tail appended
[2] = treatment: MLN4924 1 uM, 8 h, c terminus: a fixed tail appended
[3] = treatment: DMSO, c terminus: native
[4] = treatment: MLN4924 1 uM, 8 h, c terminus: native
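Note: 24-mer peptide tiles fused after GFP, lentivirally expressed, FACS-sorted into six equal bins by GFP/DsRed ratio, decoded by Illumina sequencing, PSI is the read-weighted mean bin number.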

Sequence GDKASPDQNASTHTPQSSVKTSVP [CLINT1] has a protein stability index [1] of 5.54 ± 0.19 and a protein stability index [2] of 5.38 ± 0.28.

Work on SVSCCHGNTLLAVRSVTDEPVPP [NEK8] yielded a protein stability index [3] of 3.38 ± 0.17 and a protein stability index [4] of 3.48 ± 0.077.

QAEFTAMRDQYMRAGEGFIICYSI [RIT1] gave a protein stability index [1] of 3.38 ± 0.48 and a protein stability index [2] of 3.04 ± 0.8.

For PSNSSSLTLSGIKEDNSLLNQGFL [MYBL2], the protein stability index [1] was 3.57 ± 0.35 and the protein stability index [2] was 3.81 ± 0.45.

Sequence APGLYNHLPWQYHAGQGGLFYSAE [CCDC3] has a protein stability index [1] of 2.69 ± 0.084 and a protein stability index [2] of 3.25 ± 1.1.

Sequence LLAIQFLEFFYGIATATEIAYYSY [SLC19A2] has a protein stability index [1] of 2.92 ± 1.3 and a protein stability index [2] of 3.13 ± 0.23.

PFVSAMPTPMPHNKGTRFSEAWEY [ZBED2] showed a protein stability index [1] of 2.88 ± 0.23 and a protein stability index [2] of 2.94 ± 0.11.

AELKEAVEEPSSKDVMEKREDSKE [CHGA] showed a protein stability index [1] of 5.67 ± 0.083 and a protein stability index [2] of 5.61 ± 0.17.

With YSAYIRRCACAASSDESPGSKCSP [TTC32] the protein stability index [1] was 2.25 ± 0.23 and the protein stability index [2] was 2.85 ± 0.16.

DTMLEEVENKEKDSNMPHFQTLQA [CEP70] gave a protein stability index [1] of 4.94 ± 0.22 and a protein stability index [2] of 4.93 ± 0.15.

Work on RSRYDGHRIWMYNCHIGGSFSEET [LOXL2] yielded a protein stability index [1] of 2.17 ± 0.35 and a protein stability index [2] of 2.72 ± 0.35.

For GSRVISHYAGQDATDPFVAFHINK [FADS1], the protein stability index [1] was 3.33 ± 0.31 and the protein stability index [2] was 3.35 ± 0.22.

Sequence PHYPEYFQQPAPEYHQPQAPANVA [LOXL2] has a protein stability index [1] of 4.26 ± 0.2 and a protein stability index [2] of 4.2 ± 0.28.

With SPLGALQHGFFRRTADEATNTGPA [DYRK1B] the protein stability index [1] was 4.38 ± 0.16 and the protein stability index [2] was 4.57 ± 0.053.

Work on NLYEEGRTAFLWRGNVVLRAQMIR [TRIM43] yielded a protein stability index [1] of 2.22 ± 0.2 and a protein stability index [2] of 2.06 ± 0.21.

In the case of ELARIVLLRHRMNWLGRPSKVLSL [RAB40A], the protein stability index [1] is reported as 2.46 ± 0.73 and the protein stability index [2] is reported as 2.43 ± 0.43.

With SFSVLNWDQVSRLHEVLTEVVPIH [TENT5C] the protein stability index [1] was 2.26 ± 0.28 and the protein stability index [2] was 2.3 ± 0.27.

For SLLDVQRVPSFESFEDDCSQSLCL [ETS2], the protein stability index [1] was 3.9 ± 0.53 and the protein stability index [2] was 3.67 ± 0.54.

With ARALLEDDSDTQQVVVLVRDNGDP [PCDHGC5] the protein stability index [1] was 4.82 ± 0.1 and the protein stability index [2] was 4.79 ± 0.46.

For RKFSRLSCLRRRRHPPKVGDDSDL [SMG5], the protein stability index [1] was 4.08 ± 0.17 and the protein stability index [2] was 3.96 ± 0.28.

Work on VQTWTQPRLCYLVKEGGSYGFSLK [PDZK1] yielded a protein stability index [1] of 2.13 ± 0.24 and a protein stability index [2] of 2 ± 0.33.

In the case of IVADIELENVLDPDSFYELKSQPL [TFE3], the protein stability index [1] is reported as 2.65 ± 0.47 and the protein stability index [2] is reported as 3.09 ± 0.51.

SKPKTFQAYLDDCHRRYSCAHCRA [YPEL3] showed a protein stability index [1] of 2.41 ± 0.55 and a protein stability index [2] of 3.04 ± 0.59.

With RTDPNGDYIRRYLPVLRGFPAKYI [CRY1] the protein stability index [1] was 2.27 ± 0.3 and the protein stability index [2] was 2.42 ± 0.39.

PAPKRGYSSEMKTEDELRVRHLEE [AUH] gave a protein stability index [1] of 5.15 ± 0.48 and a protein stability index [2] of 4.75 ± 0.87.

With GYPAAPPAVPFAPHFLQGGPFPLP [TBX6] the protein stability index [1] was 2.52 ± 0.58 and the protein stability index [2] was 2.7 ± 0.35.

Sequence LPLALYTATFAVHFMVLSKSGPGD [POMT2] has a protein stability index [1] of 3.34 ± 0.33 and a protein stability index [2] of 3.01 ± 0.61.

For FDYEYDWIGKQLPTPVGAVQQDPA [CSNK1G3], the protein stability index [1] was 3.63 ± 0.2 and the protein stability index [2] was 3.65 ± 0.44.

In the case of ANRWSFDGIDRWIKEIDEHAPGVP [RAB40B], the protein stability index [1] is reported as 3.92 ± 0.076 and the protein stability index [2] is reported as 3.92 ± 0.12.

With ELDGPKQIFFGRRKDMIAEKLAPS [ZNF396] the protein stability index [1] was 3.62 ± 0.11 and the protein stability index [2] was 3.62 ± 0.27.

In the case of DINLNSPNKGLLSDSMTDVPVDTG [TPD52L2], the protein stability index [1] is reported as 4.19 ± 0.2 and the protein stability index [2] is reported as 4.51 ± 0.22.

With PFAFVEFEDPRDAEDAVYGRDGYD [SRSF1] the protein stability index [1] was 4.76 ± 0.15 and the protein stability index [2] was 4.64 ± 0.2.

QCMQPNNIMGIENICELAARMLFS [NR2F2] gave a protein stability index [1] of 2.45 ± 0.68 and a protein stability index [2] of 2.49 ± 0.36.

For EDLEWERYRGRGSEEYRAPRPQSE [CHGB], the protein stability index [1] was 5.19 ± 0.38 and the protein stability index [2] was 5.33 ± 0.23.

RFQDPAAASISDGDCDAREEKQRE [FAM219A] gave a protein stability index [1] of 5.5 ± 0.4 and a protein stability index [2] of 5.46 ± 0.32.

LLADLKKCGDLECEALINRVSAMR [MIA2] gave a protein stability index [1] of 2.53 ± 0.23 and a protein stability index [2] of 2.55 ± 0.32.

In the case of MRILAHGELVLATAISSFTRHVFT [TLE6], the protein stability index [1] is reported as 3.1 ± 0.61 and the protein stability index [2] is reported as 2.76 ± 0.35.

TKKLRLTKPSKSAALHIDLCKATS [INTS4] showed a protein stability index [1] of 2.91 ± 0.17 and a protein stability index [2] of 3.13 ± 0.22.

In the case of RRKIRELQLRYSLRILIGDPPHHD [BEX5], the protein stability index [1] is reported as 2.42 ± 0.42 and the protein stability index [2] is reported as 2.07 ± 0.23.

With LLPRQPLPLGIKVYEDETKVVHAV [PALM] the protein stability index [1] was 3.47 ± 0.28 and the protein stability index [2] was 3.48 ± 0.12.

Work on IRSPRPASVATWAIFVHRVGQPSI [CTBP1-DT] yielded a protein stability index [1] of 2.46 ± 0.5 and a protein stability index [2] of 2.47 ± 0.31.

For ESFFVDYEENEGAGPYLLNGSYLE [ADAMTSL2], the protein stability index [1] was 3.658 ± 0.034 and the protein stability index [2] was 3.82 ± 0.072.

Sequence RTMCAVLGLVARQEDSGLRDHSVR [AUP1] has a protein stability index [1] of 2.43 ± 0.33 and a protein stability index [2] of 2.76 ± 0.26.

In the case of AALEEESRQRQSRMEKGEPYMSIQ [SMARCE1], the protein stability index [1] is reported as 4.88 ± 0.34 and the protein stability index [2] is reported as 4.88 ± 0.22.

Work on YRAALRSCSLVLEHQPDNIKALFR [FKBP8] yielded a protein stability index [1] of 2.17 ± 0.25 and a protein stability index [2] of 2.27 ± 0.037.

TSETSHSPLYADPYTPPATSHRRV [PLEKHN1] gave a protein stability index [1] of 4.39 ± 0.12 and a protein stability index [2] of 4.34 ± 0.08.

In the case of TSGGSNIIYVASNHFVWRLIPVPM [VPS39], the protein stability index [1] is reported as 2.44 ± 0.36 and the protein stability index [2] is reported as 2.51 ± 0.74.

In the case of ELIILYEKKGLHEKALQVLVDQSK [VPS39], the protein stability index [1] is reported as 2.26 ± 0.25 and the protein stability index [2] is reported as 2.53 ± 0.22.

Sequence NFSAAKSLLKKPDGVKESTESSNT [CAMK2D] has a protein stability index [1] of 5.35 ± 0.22 and a protein stability index [2] of 5.28 ± 0.35.

With SSLCYKQRIKSQERETEATRGRGG [MOG] the protein stability index [1] was 5 ± 0.27 and the protein stability index [2] was 5.06 ± 0.32.

KMPVLKAEASHYNSDLNNLLFCCQ [RHOBTB3] gave a protein stability index [1] of 2.27 ± 0.41 and a protein stability index [2] of 2.29 ± 0.15.

VMSGVKCSGTELSLAHCRHDGEDV [LOXL2] showed a protein stability index [1] of 4.95 ± 0.21 and a protein stability index [2] of 4.89 ± 0.24.

LSSVDMRMTSSPSSIPRRDDFFRH [RAD54B] gave a protein stability index [1] of 3.21 ± 0.28 and a protein stability index [2] of 3.38 ± 0.34.

Work on HKTHQAPASASSLPGTGAQLPPQP [DYRK1B] yielded a protein stability index [1] of 4.55 ± 0.43 and a protein stability index [2] of 4.97 ± 0.22.

In the case of LVLQTSEGKALQQYPSERELRGI [TRIM9], the protein stability index [3] is reported as 3.01 ± 0.96 and the protein stability index [4] is reported as 2.98 ± 0.54.

Work on AATTSKEQEPIGTDLDAVRTPEPL [MYBL2] yielded a protein stability index [1] of 5.46 ± 0.3 and a protein stability index [2] of 5.41 ± 0.25.

Sequence REVAKELGLPYYETSVFDQFGIKD [RHOBTB1] has a protein stability index [1] of 3.18 ± 0.44 and a protein stability index [2] of 3.27 ± 0.29.

In the case of PSDPLVSIGALISKAHLEKVRSYV [ALDH8A1], the protein stability index [1] is reported as 2.05 ± 0.079 and the protein stability index [2] is reported as 2.12 ± 0.13.

PIGKISKNKKKKLKKKQKRQAELL [SRPK2] showed a protein stability index [1] of 4.37 ± 0.17.

Sequence NIHPQVLLPDQARGEVPWSPELGR [ZNF263] has a protein stability index [1] of 4.12 ± 0.16 and a protein stability index [2] of 4.34 ± 0.21.

With ECEKSALTPGFSDNAIMLFSPDFT [FAN1] the protein stability index [1] was 3.49 ± 0.19 and the protein stability index [2] was 3.79 ± 0.26.

FEFSVDSFQIVLDPMLDFYSDKNA [TENT5D] showed a protein stability index [1] of 2.91 ± 0.93 and a protein stability index [2] of 2.52 ± 0.42.

For GVSFSTVENELMISYLMFLQILVY [FAM98B], the protein stability index [1] was 3.08 ± 0.45 and the protein stability index [2] was 3.22 ± 0.41.

Sequence ETQTQRGGEFQCGLEAASVYSDHT [RNF180] has a protein stability index [1] of 2.33 ± 0.16 and a protein stability index [2] of 2.2 ± 0.078.

Work on EEWLLVGTKQGHLLLYRIRKDVGC [VPS39] yielded a protein stability index [1] of 3.08 ± 1.3 and a protein stability index [2] of 2.48 ± 0.5.
